Positions count from the first letter of the chain named.
Legend:
Experiment in all cases: ITC; β16β17 at 25–50 μM in the cell titrated with 15–20 injections to 2–2.5 eq of α0α1; one-site binding model; PBS (50 mM sodium phosphate, 150 mM NaCl, pH 7.04), 25 °C; mutants only against the wild-type partner
Details in all cases: both partners purified
β16β17 R13G = target: T1, β16β17 R13G (human, UniProt P11277 1898-2083, R2016G)
T1 construct: erythrocyte β-spectrin, human, residues 1898-2083 (β16β17); mutant of m2; also called R2016G; source: E. coli C41(DE3), purified (Ni2+ agarose, thrombin cleavage, gel filtration)
T1 sequence (looked up): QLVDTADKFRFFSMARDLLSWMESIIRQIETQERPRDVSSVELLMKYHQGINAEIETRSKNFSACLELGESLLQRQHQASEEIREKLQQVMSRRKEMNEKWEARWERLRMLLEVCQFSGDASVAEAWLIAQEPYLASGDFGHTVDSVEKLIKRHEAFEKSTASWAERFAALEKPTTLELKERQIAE

β16β17 K46G = target: T2, β16β17 K46G (human, UniProt P11277 1898-2083, K2049G)
T2 construct: erythrocyte β-spectrin, human, residues 1898-2083 (β16β17); mutant of m2; also called K2049G; source: E. coli C41(DE3), purified (Ni2+ agarose, thrombin cleavage, gel filtration)
T2 sequence (looked up): T1 sequence (looked up) with G119R, K152G

β16β17 L22A = target: T3, β16β17 L22A (human, UniProt P11277 1898-2083, L2025A)
T3 construct: erythrocyte β-spectrin, human, residues 1898-2083 (β16β17); mutant of m2; also called L2025A; source: E. coli C41(DE3), purified (Ni2+ agarose, thrombin cleavage, gel filtration)
T3 sequence (looked up): T1 sequence (looked up) with G119R, L128A

β16β17 E19A = target: T4, β16β17 E19A (human, UniProt P11277 1898-2083, E2022A)
T4 construct: erythrocyte β-spectrin, human, residues 1898-2083 (β16β17); mutant of m2; also called E2022A; source: E. coli C41(DE3), purified (Ni2+ agarose, thrombin cleavage, gel filtration)
T4 sequence (looked up): T1 sequence (looked up) with G119R, E125A

β16β17 F11A = target: T5, β16β17 F11A (human, UniProt P11277 1898-2083, F2014A)
T5 construct: erythrocyte β-spectrin, human, residues 1898-2083 (β16β17); mutant of m2; also called F2014A; source: E. coli C41(DE3), purified (Ni2+ agarose, thrombin cleavage, gel filtration)
T5 sequence (looked up): T1 sequence (looked up) with F117A, G119R

β16β17 F62L = target: T6, β16β17 F62L (human, UniProt P11277 1898-2083, F2065L)
T6 construct: erythrocyte β-spectrin, human, residues 1898-2083 (β16β17); mutant of m2; also called F2065L; source: E. coli C41(DE3), purified (Ni2+ agarose, thrombin cleavage, gel filtration)
T6 sequence (looked up): T1 sequence (looked up) with G119R, F168L

β16β17 F51L = β16β17 F51L (human, UniProt P11277 1898-2083, F51L (domain identifier), printed F2054G as protein identifier, The table's protein identifier F2054G is taken as a typo: the domain identifier is F51L (offset 2003), and the text says aromatic residues were mutated to Ala or Leu)

Ka (β16β17 R13G): 71000 M⁻¹
Ka (β16β17 K46G): 230000 M⁻¹
Ka (β16β17 L22A): 6000 M⁻¹
Ka (β16β17 E19A): 93000 M⁻¹
Ka (β16β17 F11A): 6000 M⁻¹
Ka (β16β17 F62L): 100000 M⁻¹
Ka (β16β17 F51L): 180000 M⁻¹
B1: α0α1 (erythrocyte α-spectrin residues 2–163), wild type (domain or fragment, human, UniProt P02549 2-163, looked up)
chain: EQFPKETVVESSGPKVLETAEEIQERRQEVLTRYQSFKERVAERGQKLEDSYHLQVFKRDADDLGKWIMEKVNILTDKSYEDPTNIQGKYQKHQSLEAEVQTKSRLMSELEKTREERFTMGHSAHEETKAHIEELRHLWDLLLELTLEKGDQLLRALKFQQY
notes: synthetic gene (GenScript) in a modified pRSETA plasmid; also called α1α0; source: E. coli C41(DE3), purified (Ni2+ agarose, thrombin cleavage, gel filtration)
